Measurements reported in patent US20260265357A1 (NEPHRIS, published 2026).

Assays:
[1] = molecular target: T1, human NBL1 (neuroblastoma suppressor of tumorigenicity 1) (human, UniProt P41271 17-181, limits assumed); experiment: ELISA, IgG1 format
T1 construct: Recombinant human NBL1; also called DAN; DAND1
T1 sequence (looked up): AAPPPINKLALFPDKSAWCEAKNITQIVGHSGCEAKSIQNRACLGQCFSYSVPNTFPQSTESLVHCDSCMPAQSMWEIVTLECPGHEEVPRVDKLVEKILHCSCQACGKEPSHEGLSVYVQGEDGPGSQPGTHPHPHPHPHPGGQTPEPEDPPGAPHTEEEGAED
Experimental: (§1) Naïve human phage display libraries were panned to discover Fabs capable of binding human NBL1 (UniProt ID P41271), and further screened for potential inter species cross reactivity to mouse NBL1 (UniProt ID Q61477) and/or cynomolgus (“cyno”) NBL1 (UniProt ID A0A2K5WIY3). […] Antigen binding of the IgG1 formatted antibodies was tested by ELISA and EC50 values were calculated.

mouse NBL1 = molecular target: T2, mouse NBL1 (mouse, UniProt Q61477 17-178, limits assumed); experiment: ELISA, IgG1 format
T2 sequence (looked up): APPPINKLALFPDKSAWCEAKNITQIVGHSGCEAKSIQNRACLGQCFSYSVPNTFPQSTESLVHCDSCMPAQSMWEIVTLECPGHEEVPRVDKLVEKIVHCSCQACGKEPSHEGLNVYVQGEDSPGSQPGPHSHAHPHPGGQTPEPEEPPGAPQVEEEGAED
Experimental: as §1

binding result [1] | binding result (mouse NBL1) | Binder
binds | binds | Antibody YU1018-E04 (antibody, V domains shown) VH: QVQLVQSGAEVKKPGESLKISCKGSGYSFTSYWIGWVRQMPGKGLEWMGIIYPGDSDTRYSPSFQGQVTISADKSISTAYLQWSSLKASDTAMYYCARAIVGATSGYWFDPWGQGTLVTVSS VL: not shown
binds | binds | Antibody YU1018-D08 (antibody, V domains shown) VH: QVQLVQSGAEVKKPGSSVKVSCKASGGTFSSYAISWVRQAPGQGLEWMGGIIPIFGTANYAQKFQGRVTITADKSTSTAYMELSSLRSEDTAVYYCARDRYYDSSGYYLMDPWGQGTLVTVSS VL: not shown
binds | binds | Antibody YU1018-D06 (antibody, V domains shown) VH: QVQLVESGPGLVKPSQTLSLTCTVSGGSISSGGYYWSWIRQHPGKGLEWIGYIYYSGSTYYNPSLKSRVTISVDTSKNQFSLKLSSVTAADTAVYYCARSGAAGIPWFDPWGQGTLVTVSS VL: QSVLTQPPSVSAAPGQKVTISCSGSSSNIGNNYVSWYQQLPGTAPKLLIYENNERPSGIPDRLSGSKSGTSATLAITGLQTGDEADYYCGTWDSSLSAVVFGGGTKLTVL
binds | binds | Antibody YU1018-E01 (antibody, V domains shown) VH: QVQLVQSGAEVKKPGASVKVSCKASGYTFTSYGISWVRQAPGRGLEWMGWISAYNGNTNYAQKLQGRVTMTTDTSTSTAYMELRSLRSDDTAVYYCARGPRDGYNDYWGQGTLVTVSS VL: not shown

The next lines start with the binder.

Binder | binding result [1] | binding result (mouse NBL1)
Antibody YU1019-A12 (antibody, V domains shown) VH: EVQLLESGPGLVKPSQTLSLTCTVSGGSISSGDYYWSWIRQPPGKGLEWIGYIYYSGSTYYNPSLKSRVTISVDTSKNQFSLKLSSVTAADTAVYYCARGRRLLLFHWGQGTTVTVSS VL: QSVLTQPPSVSAAPGQKVTISCSGSGSSIGNNYVSWYQQVPGTPPKLLIYDNNKRASGIPDRFSGSKSGTSATLGITGLQTGDEADYYCGTWDNSLSAVVFGGGTKLTVL | binds | binds
Antibody YU1018-G01 (antibody, V domains shown) VH: QVQLVQSGAEVKKPGASVKVSCKASGYTFTSYAMHWVRQAPGQRLEWMGWINAGNGNTKYSQKFQGRVTITRDTSASTAYMELSSLRSEDTAVYYCARGRELLTFDYWGQGTLVTVSS VL: not shown | binds | binds
Antibody YU1019-B06 (antibody, V domains shown) VH: EVQLLESGGGVVQPGRSLRLSCAASGFTFSSYAMHWVRQAPGKGLEWVAVISYDGSNKYYADSVKGRFTISRDNSKNTLYLQMNSLRAEDTAVYYCASPVLRYFDWLPNYWGQGTLVTVSS VL: not shown | binds | binds
Antibody YU1018-E07 (antibody, V domains shown) VH: EVQLLESGGGVVQPGRSLRLSCAASGFTFSSYAMHWVRQAPGKGLEWVAVISYDGSNKYYADSVKGRFTISRDNSKNTLYLQMNSLRAEDTAVYYCASPVLRYFDWLPNYWGQGTTVTVSS VL: not shown | binds | binds
Antibody YU1018-D12 (antibody, V domains shown) VH: EVQLVQSGAEVKKPGASVKVSCKASGYTFTSYGISWVRQAPGQGLEWMGWISAYNGNTNYAQKLQGRVTMTTDTSTSTAYMELRSLRSDDTAVYYCARDVGYSYGIFDYWGQGTLVTVSS VL: not shown | binds | binds
